According to the DeepSol protein solubility set:

Experiment: soluble on expression in E. coli; label from the status in PepcDB or PDB records

Sequence | soluble on expression in E. coli
MGSDKIHHHHHHMSKFWEKEFTCPFCGTKFKKKMVFFDSIKIKARDIDLKPVFEDVNPMFYEVVTCPNCYFSAFDKDFETITIKGEETERKLKKLLEEAKKKVELKNVENHVEAIKRYALSGMVYSVLNQRKKVAISYLKIAWLFRELGKSEEEKRYLERALKEFESHYKYDYYEESDEPMILFYLGVLNQILGNRKEAARWYELLLRKYDGKSLYAKVGRERWQELRRS | not soluble
MGHHHHHHSHMQNEKETMQSLNDRLASYLDRVRSLETENRRLESKIREHLEKKGPQVRDWSHYFKIIEDLRAQIFANTVDNARIVLQIDNARLAADDFRVKYETELAMRQSVENDIHGLRKVIDDTNITRLQLETEIEALKEELLFMKKNHEEEVKGLQAQIASSGLTVEVDAPKSQDLAKIMADIRAQYDELARKNREELDKYWSQQIEESTTVVTTQSAEVGAAETTLTELRRTVQSLEIDLDSMRNLKASLENSLREVEARYALQMEQLNGILLHLESELAQTRAEGQRQAQEYEALLNIKVKLEAEIATYRRLLEDGEDFNLGDALDSSNSMQTIQKTTTRRIVDGKVVSETNDTKVLRH | soluble
MSSVAPSVRLFFALWPQEAVRKQLARLARRIADQCAGRCVRPENLHLTLAFIGEVDSSVVPILRQAGSAIHRTSFDLLLDKLHCWGKGSIIAAGVSQPCGELTVLVQDLRNQLSAAGVRYDTVKFVPHVTLVRNAKREPEQKHFPETIPPVAWAADRWSLVQSRPTPYGSAYQSFADWALASQDFDEHHRA | not soluble
GPGSMRSASAYGLDGQARSLCSLYHPSLNSQECHRFLIGTANPSADNKIHLIEYQDDTKSLECATVWSHNDPVMGLWCSPSLSADSLLAVSSLRKLVVFQISENVLNEPKCIATMNKNYSRVLWDLDGLQREFRAVHQNTLTTVFLSSSKLGSETVNYTSSGGFIRCAALAPYDPNLCLISCDSDGLQLVDLRSKKASSFATTKYSHGFGYTTAVDFDRLKPGQFLSAGTDGYVYIHDIRYNTSCSLAILRHMKAHEHAVQSCSFNSFRDELVLSCSSDQTLKLWDVEHNNEPKCLRRLADYGDSVVALCWSGNSPWVFAGLSFNGKLLVDTVPNEKKMSILLDEKKWCET | not soluble
MSLNNYPFASMRDCFDMSAYFVVGPQDCKGRPVTDVVDDALRGGATFIQLRAKNADAKDITEMARDIAQVIKNSGKSDSVAFVIDDRVDVVWQARDKGIKVDGVHIGQTDMEPQEARALLGEDAIVGLSAETESLVKLINELPSGCIDYIGAGPLHVSTTKPEASVGGNDGSGHTLDEEQINAICAASEFPVVVGGGVHADDMEMLARSKAAGWFVVSAIAGADDPEAATREMVTRWKAVRGDAEGHHHHHH | soluble
EYVYIMTPYLILDSELEHAIQFAAERGVDVRIIMPGIPDKPIPYALAKTYYQALTKSGVKIYEYTLGFVHSKIFLSDNTKAVVGTINLDYRSLYHHFECAVYLYKVDAIQDIYRDYMDTLNKSRLVSLKDINNI | not soluble
GSPHMLSGSGLCNSSSALPLYNQQVGDCCIIRVSLDVDNGNMYKSILVTSQDKAPAVIRKAMDKHNLEEEEPEDYELLQILSDDRKLKIPENANVFYAMNSTANYDFVLKKRTFT | soluble
MSLGKFLVEREQMRYPVDVYTGKIQAYPEGKPSAIAKIQVDGELMLTELGLEGDEQAEKKVHGGPDRALCHYPREHYLYWAREFPEQAELFVAPAFGENLSTDGLTESNVYMGDIFRWGEALIQVSQPRSPCYKLNYHFDISDIAQLMQNTGKVGWLYSVIAPGKVSADAPLELVSRVSDVTVQEAAAIAWHMPFDDDQYHRLLSAAGLSKSWTRTMQKRRLSGKIEDFSRRLWGKEGGSHHHHHH | soluble
MGSDKIHHHHHHMVKVVKFGGSSLASAEQFTKVGDIIRSDESRKYVVPSAPGKRNSKDTKVTDMLYACYDLAENDQDFKVMLRKIKDRYDSIINGLHLKLALDEEFKIIAENFKAKAGADYAASRGEYLNGIIMANYLGYEFIDSATVIFFDENGNFDAEKTDKVLSKKLEQTEKAVIPGFYGAGPDGKVVTFSRGGSDITGSIVSKACHASMYENWTDVSGCLVADPRIIDNPQPIKVVTYRELRELSYMGASVLHEDAVFPVRKAGIPINIRNTNDPEAPGTLIVESTCQKPDYTITGIAGKKGFVAVNIDKDKMNSEVGFCRKALQAFEENGISIEHMPSGIDTMTVFVHQAEFEGKEQQVISSIRRLAHPDIIDLESDLALIAVVGRGMKSNRGTAGRIFSALAHANINVRMIDQGSSELNIIIGVSNDDFDKAIKAIYDIFVVTQL | not soluble
MGSDKIHHHHHHMDMTTYPIYLVGGSKGGVGKSFVALALADYLLRQNIRAALVETDTSNPDVMKAVQDEMRCIAYNLDDADGWIGLVNFCDEQRDAAIVVNTAARSQTGVEQFGATLAGALGELQRRLVVLWVINRQRDSLELLHAFSKTFPDAVTNVVRNGYFGPAEKFTLYQGSQLRRSIEARGHSLDFPDLADRVADELRSQRMSIRKAAETMHIGERVELMRWRSLCDAMFARVTVDG | not soluble
MSLKHVAVYLRLSRGEDESELDNHKTRLLNRCELNNWSYELYKEIGSGSTIDDRPVMQKLLTDVEKNLYDAVLVVDLDRLSRGNGTDNDRILYSMKVSETLIVVESPYQVLDANNESDEEIILFKGFFARFEFKQINKRMREGKKLAQSRGQWVNSVTPYGYIVNKTTKKLTPSEEEAKVVIMIKDFFFEGKSTSDIAWELNKRKIKPRRATEWRSSSIANILQNEVYVGNIVYNKSVGNKKPSKSKTRVTTPYRRLPEEEWRRVYNAHQPLYSKEEFDRIKQYFECNVKSHKGSEVRTYALTGLCKTPDGKTMRVTQGKKGTDDDLYLFPKKNKHGDSSIYKGISYNVVYETLKEVILQVKDYLDSVLDQNENKDLVEELKEELMKKEDELETIQKAKNRIVQGFLIGLYDEQDSIELKVEKEKEIDEKEKEIEAIKMKIDNAKTVNNSIKKTKIERLLSDVQSAESEKEINRFYKTLIKEIIVDRTDENEAKIKVNFLEGHHHHHH | not soluble
MLLVSTGAAGAEVIYVEPGASIQAAVNNSTTGDFIIVKAGEYEENIVVNVSGVTVSSEPEKSGSVFIRAGDRNSSVFQVKADNVTISGFNITGSGEFFSTHEASSPRDSFPKDPDGQGVSDIPELRKTYSLGSGEVFISRSTEFDCPQAGICLDQVENCTIERNHIFENQYGVYLQGSMNNTLSNNTFFRNGILIDEGCSRNTAENNSIEEGNLIIGAHCWDNIISRNRLSNGGGIGIACCGGGNLVSNNEIINCSTGVDMYDTQARTVLCGNLITDCDYGIYLILVYDSRVYNNTISNSSRGIFLRENSQNNELSGNIINSSNESGIYLLDHCADNRIFNNYFNNTVNVKAENSKGNSWNITKAPGINIAEGPYLGGNFWADLNGTGYSQIAEDSDSDGICDLPYNVNGCDYDYLPLARLPFSPSLSGGNLKLLEHHHHHH | not soluble
MGSDKIHHHHHHMLGMPTVLGVVLRMGRELWWCSLRPVSMLKEYAYCPRVAYYMEVLRPSYRPTEPMNLSREIYSVDHVRGILRSSGFRIVKEEWAVPLRSKRLGLQGVADGVVVEGSLGIIVVEAKLSVRSNRWLHTRGRHVIFQAAAYALALEETRGYSVDYLAIVSLEDSKTYVVKMSPSLRRDVIRLADDMNKTLDDGLEPPPKPGRKCVACRFRRVCQPWVAERGSER | not soluble
MAEMSEKTPELGDALRVGARVLVRRPSETAATGAAVEDCADLVPAQDRGHEWAPVPRWAVALDDGRLVFADTEDLTVNPSPGAPEGEIGKAVEPK | not soluble
MAIDSKPHDDLQLFKTNLHPCGYWPDRWASDLVMDPNDPRLGAIYPQTLAWGFRRSGNLLYRPHCEHCNACVPVRVNVNAFVPNRSQRRCLARNATLVTRIVPAERNAEQLSLYRRYLHQRHPDGGMDGHGAIEFDQFLIGPWGYGRFMEIREPATNGTPGQLLAVAVTDLTHQALSAVYTFYEPNAAARGLGTLAILHQIHWAQREQRPYLYLGYWIKDHFKMDYKRRFQKLEIYDGYRWRPFSTTYPTTHTLLEHHHHHH | soluble
MAKQPTVLWAQRESLVYLTIEVDEAKIEELKGEGNKLHFQGSSKTDKYEATLEFFDEIDPASVKHTGSSTRVVEITVQKKTPAWWPRLLQNKGKVHWLKVDFGKWKDEDEDDEAEDAGAGIGGGMANGFDLNQYMSQMGGAGGADFGGLEDDEEDDDMPDLEDNEEEEGKNGTRA | not soluble
MSLRSVVSFNEGWSFHEGFGQRLLENFDAAKPVSLPHTAVELPFNYFDEKSYQRAFTYQKVLRWLPEFEGREVSLVFDAAMADSVVYLNGEEITAHKDGYTPFEARLTGKLLKGENLVTVKIDGSENPAIPPFGGRIDYLTYAGIYRDVWLKVTDPVSIRNLKIETADVLAPHKSASIRVDLANPEGRSFSATLTAALKQADGTVIATAATETIGNRTTLSLGGLTGITLWDITNPTLYEVTVELRTEHGSDRLSTRFGFRTAEFTPEGFLLNGKPLKLRGLNRHQAFPYVGYAAGRSAQERDADIMKSVLKCNIVRTSHYPQSKWFLDRCDAIGLLVFEEIPGWQHIGDADWQKESIENVRRMIERDWNHPSIIIWGVRINESQDSHDFYAETNRLARELDSTRQTGGVRYITESELLEDVYTMNDFILGNEELPGANRPRTVLRGQQENTGLSRKVPYLITEFNGHMHPTKIYDQEQRQAEHVRRHLEVLNAAYGDPDISGAIGWCMFDYNTHKDFGSGDRVCYHGVMDMFREPKFAAYAYISQCEPSEEIVMKPVTFWARGERNIGGVLPLIILTNCDEVELQYGALSKRVGPDRENYPHLPHPPVVLDHRHFTADELGTWGLEWIDGALTGFIAGEAVVSLNLAADPLPTTLEMVADSSTLKTRERDSTRVIIRALDQCGQRLPFMNDSISLKVHGPARIVGPTNVPLQGGTSGFWLEATGLVGEITVEAVSSRFAPVTLNVTAVAEGHHHHHH | soluble
MGSDKIHHHHHHMKVAIVIHDLKGGGAEKMMMRLANAISKQHHEVDLVLLTNGGTNKDLLDNGVNLIELNSLRTASSVPRLRQYLKINSPDRVLSALTHVNVITFIACLSLGWLSRLHCSERNAFSFDKDVNKSPLIKFAYFLAPFLYRISPNPVIAVSLGVALDLIETTVVCPKNVINLPNPTLNDNYKTHIFLAPSHPWLSDKTKPVIVGLGRLAQQKGFSDLINAFALVREKIDSRLIIFGEGELRIKLQTQIDNLGLTDSVSLFGYVRAPMDEVHSADVFVLSSLFEGSPNALVEAMASRCKVVSTRCPCGPDEILIQGALGILVPVKSPNKLAEAIICSLLDADYDFENQLDKIERFTANNSASAYLSAMGIHGV | not soluble
GPHMASAEEKLEKKLELDPNCKEPLQVLPPTVVDQIRLWQLELDRVITYEGSLYSDFETSQEYNLLSKYAQDIGVLLWKDDKKKKFFISKEGNSQVLDFAKRKLKKKQ | soluble
MGSDKIHHHHHHMHIAIMSRNKNLYSTSRLKEAAEARGHVIKIVDPLKCYMNINMNAPSIHVRGEELPKFDAVIPRIGASVTFYGTAVLRQFEMMGTHPLNESVAITRSRDKLRSLQLLSRKNIGLPVTGFASKPADIPDLLDMVGGAPCVIKLLEGTQGIGVVLAETRKAAESVIEAFMGLKANIMVQEYIAEAGGADIRCFVIGDKVIAAMKRQALPGEFRSNLHRGGSASIVKLTPEERSTALRAAKTMGLNVAGVDILRSKHGPLVMEVNSSPGLEGIEKATGIDVAEKIIQFIEKNVKSTSSKTKGVG | not soluble
SMSETFDVELTKNVQGLGITIAGYIGDKKLEPSGIFVKSITKSSAVEHDGRIQIGDQIIAVDGTNLQGFTNQQAVEVLRHTGQTVLLTLMRRGETSV | soluble
ERVKWRKQIEASGARLKSMIDQTPAPTLVLMGDNLVIEQVNTSMLKLLGHEENIVGIPLLTLMPELKGQYIWEQVEKVYREGIPFDQSEVRVSHKRTGMMEDYYYNIAYRPLKEDGRITGMIQVAIDVT | not soluble
